B1: 25-bp RNA-DNA hybrid (RNA-25/DNA-25C) (DNA:RNA)
RNA: GUGUAAUGUUGUUGCACGGCACGCU
DNA: AGCGTGCCGTGCAACAACATTACAC
B2: 25-bp dsRNA (RNA-25 + complementary RNA; RNA-25C is printed identical to RNA-25, apparent misprint, complement built) (dsRNA)
RNA 1: GUGUAAUGUUGUUGCACGGCACGCU
RNA 2: AGCGUGCCGUGCAACAACAUUACAC

biological target: T1, Yra1 (Saccharomyces cerevisiae, UniProt Q12159 1-226); assay: EMSA
T1 sequence: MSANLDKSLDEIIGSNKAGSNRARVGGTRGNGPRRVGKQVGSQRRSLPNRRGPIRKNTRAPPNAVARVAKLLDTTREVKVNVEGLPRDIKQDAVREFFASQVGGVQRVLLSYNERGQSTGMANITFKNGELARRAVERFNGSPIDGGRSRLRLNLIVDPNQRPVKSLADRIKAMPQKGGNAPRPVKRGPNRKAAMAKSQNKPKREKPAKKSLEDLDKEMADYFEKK

| Binder | binding result |
| --- | --- |
| GUGUAAUGUUGUUGCACGGCACGCU (ssRNA) [RNA-25 ssRNA] | binds |
| AGCGTGCCGTGCAACAACATTACAC (ssDNA) [DNA-25C ssDNA] | binds |
| B1 | binds |
| B2 | binds |

— PMC6075034
